In patent US20080095768A1 (PDL BIOPHARMA, published 2008):

Target: T1, human CS1 (CD2-subset1) (human, UniProt Q9NQ25 23-335)
T1 construct: Endogenous CS1 on primary myeloma cells / CD138+ tissue plasma cells; also called SLAMF7; CRACC
Assay: flow cytometry on primary myeloma cells and IHC on normal tissues, using HuLuc63 as the detecting antibody
Protocol: Gene expression was assessed using an Affymetrix GeneChip array. Protein expression was measured by flow cytometry, and immunohistochemistry (IHC), using HuLuc63, a novel humanized anti-CS1 mAb. HuLuc63-mediated lysis of myeloma cells via antibody dependent cellular cytotoxicity (ADCC) was measured by ⁵¹Cr-release.
CS1 mRNA was detected in CD138+ purified plasma cells from >95% of healthy donors, newly diagnosed myeloma patients, and those with relapsed myeloma (FIG. 1). […] Finally, we determined that HuLuc63 could induce killing of myeloma cells using purified allogeneic NK cells (FIG. 2). […] Our data support the potential clinical utility of CS1-targeted therapy.

binding result: binds
B1: HuLuc63 (antibody, IgG1, V domains shown)
VH: EVQLVESGGGLVQPGGSLRLSCAASGFDFSRYWMSWVRQAPGKGLEWIGEINPDSSTINYAPSLKDKFIISRDNAKNSLYLQMNSLRAEDTAVYYCARPDGNYWYFDVWGQGTLVTVSS
VL: DIQMTQSPSSLSASVGDRVTITCKASQDVGIAVAWYQQKPGKVPKLLIYWASTRHTGVPDRFSGSGSGTDFTLTISSLQPEDVATYYCQQYSSYPYTFGQGTKVEIK
notes: Humanized recombinant monoclonal IgG1; also called HyLuc63; humanized anti-CS1 mAb
